For data set [1], the target named is serotonin 5HT2(A) receptor (Homo sapiens, UniProt P28223). Put plainly: 5HT2(A) receptor antagonism in vitro.
Data set [2] relates to JCV. Particulars: one MS patient with PML after natalizumab plus AVONEX; cited from earlier work.
Data set [3] deals with JCV. Particulars: in vitro; cited from earlier work.
Data set [4] relates to MS patients. To be noted: 2-year Phase 3 MS trials; cited from earlier work.
For data set [5], the system named is rheumatoid arthritis patients. The data set is described as follows: Deaths in rheumatoid arthritis trials of natalizumab. Format: in vivo, human. To be noted: natalizumab-treated rheumatoid arthritis patients. An excerpt:
Three deaths occurred in the rheumatoid arthritis trials, two in natalizumab-treated patients and one in a patient treated with a placebo. The natalizumab-treated patients died of hemoptysis with respiratory failure and end-stage rheumatoid pulmonary disease. The placebo-treated patient died of circulatory and respiratory insufficiency.

For data set [6], the system named is relapsing remitting MS patients. The data set is described as follows: Phase 3 monotherapy study: natalizumab versus placebo for 120 weeks. Format: in vivo, human. The protocol: (§1) As described in more detail in Example 1, two Phase 3 studies were conducted to study the effect of two years of treatment with natalizumab. One of the studies used natalizumab alone (the monotherapy study) and the other used natalizumab in combination with AVONEX® (the add-on therapy study). Both these Phase 3 studies were designed with two sets of primary and secondary endpoints. The primary and secondary endpoints were selected to measure the effects of natalizumab on the inflammatory aspects of the disease after a mean of one year of follow-up in each study (900 patient-years of observation in the monotherapy study; 1,200 patient-years in the add-on therapy study).
(§2) The primary endpoint of these studies was the annualized rate of clinical relapses. Two of the secondary endpoints were two supporting MRI measures of inflammatory disease activity, namely, the mean number of new or newly enlarging T2-hyperintense lesions (measuring lesion accumulation over time) and the mean number of Gd-enhancing lesions (measuring acute disease activity), as ranked in order of importance. The proportion of patients remaining relapse-free provided a third secondary endpoint.
(§3) Another series of endpoints was assessed at the conclusion of each study following two years of natalizumab treatment. The endpoints for this final analysis were selected to determine natalizumab's effects on measures associated with MS disease progression. The primary endpoint at two years was the time until onset of sustained progression of disability, as measured by changes in EDSS scores. Similar to the one-year analysis, the secondary endpoints were additional MRI and clinical measures that would support the primary analysis. The secondary endpoints at two years, ranked in order of importance, were the rate of MS relapses (to confirm one-year relapse observations), the mean volume of T2-hyperintense lesions (a measure of overall MS disease burden), the mean number of T1-hypointense lesions (a measure of axonal loss), and progression of disability as determined by changes in the MSFC (to confirm and expand upon disability effects as measured by the EDSS).
(§4) Given two primary endpoints at two different time points (annualized relapse rate at one year, time to disability progression at two years), the Hochberg procedure for multiple comparisons (Hochberg, Biometrika 75:800-802 (1988)) was used to evaluate the primary endpoint. Each set of secondary endpoints was prioritized in order of importance as listed above. A closed testing procedure was used for each set, such that if statistical significance was not achieved for an endpoint within a set, all endpoints(s) of a lower rank in that set were not considered statistically significant.
Both Phase 3 studies had similar designs. In the monotherapy study, 942 untreated relapsing remitting MS patients were randomized to receive natalizumab or placebo for 120 weeks (30 infusions) using a 2:1 allocation. In the add-on study, 1,171 patients who had been receiving weekly intramuscular injections of 30 μg AVONEX®, but who had relapsed despite this treatment, were randomized using a 1:1 allocation to add natalizumab or placebo to their regimen, also for 120 weeks.
Efficacy parameters included EDSS scores, MS relapses, brain MRI scans, MSFC scores, visual function tests, and quality of life. EDSS and MSFC were measured every 12 weeks, brain MRI scans and quality of life questionnaires at baseline and every year, and MS relapses on an ongoing basis.
The patient population in the two Phase 3 studies were relapsing MS patients according to the criteria of the International Panel on the Diagnosis of Multiple Sclerosis (McDonald et al., Ann. Neurol. 50:121-127 (2001)). It encompassed a broad range of ages and disease severity, and represented the current relapsing MS population with active disease, consistent with the approved indication. Patients with primary- or secondary-progressive MS were excluded. […]

The nature of data set [7]: Population pharmacokinetic analysis of natalizumab with concurrent AVONEX. Format: in vivo, human. The method, then: In a placebo-controlled MS study, the administration of AVONEX® appeared to be associated with an increase in the serum concentrations of natalizumab in a small cohort on whom intensive pharmacokinetic sampling was performed. However, based upon a comparison of the mean post-hoc parameter estimates from the population pharmacokinetic analysis, steady-state clearance and half-life values differed between patients concurrently taking AVONEX® and natalizumab monotherapy, but only by approximately 5%, and were not considered clinically significant. […] It is notable that the two reports of PML in the MS database occurred in patients receiving concomitant AVONEX®. Thus, the risk of PML with natalizumab treatment may be increased by concomitant treatment with interferon β, though this could have occurred in two patients on combination therapy due to chance alone (p=0.23).

Data set [8] relates to MS patients. Put plainly: Safety of natalizumab in MS clinical trials (adverse events, deaths). Format: in vivo, human. From the text:
Eighteen treatment-emergent deaths occurred in the entire natalizumab program. The adverse events encountered in the trials, both common and serious, were similar in natalizumab-treated patients and controls. Adverse events that led to discontinuation of natalizumab occurred in 5.8% of natalizumab-treated MS patients and in 4.8% of placebo-treated MS patients, with urticaria being the most common cause of discontinuation in the natalizumab-treated patients (1.2%).
Of the eighteen deaths that occurred during the clinical trials, five occurred in the placebo-controlled MS trials (including two in patients who had received natalizumab and three who had received placebo). The patients who received natalizumab died of alcohol intoxication and metastatic malignant melanoma. The patients who received placebo died of cardiac arrest, respiratory arrest, and pleural carcinomatosis with seizures. Four deaths occurred in the open-label MS trials, due to respiratory distress, PML, suicide, and seizure due to MS.
At least one serious adverse event was encountered by 251 of the 1,617 natalizumab-treated MS patients (15.5%) and by 214 of the 1,135 placebo-treated patients (18.9%) in the placebo-controlled trial. The most common serious adverse events, classified by organ systems, were nervous system disorders (5.9% natalizumab, 10.2% placebo). […] The second most common serious adverse events were infections and infestations (2.4% natalizumab, 2.2% placebo), with appendicitis and urinary tract infection (<1% in both groups) as the most common.

Data set [9] has as its system JCV. Put plainly: Safety evaluation for PML / JCV in natalizumab-exposed clinical trial patients. From the text: Clinical trial patients exposed to natalizumab were systematically assessed for evidence of incipient PML or any other opportunistic infection.
Criteria were established prospectively for the neuroradiologic evidence and laboratory assays for the diagnosis of PML. A diagnosis of “confirmed PML” was defined by presence of progressive clinical disease, MRI signs typical of PML, detection of JCV DNA in CSF, or pathologic confirmation. Sufficient evidence to exclude PML was defined as lack of progressive neurological disease, MRI lesions not typical of PML or stable over time, or no detectable JCV DNA in the CSF if the MRI was suspicious. A case was deemed “indeterminate” if there was clinical or MRI suspicion of PML and follow-up clinical, MRI, or CSF data could not be obtained.
Investigators were requested to perform the assessment procedure, including medical history, neurological examination, brain MRI, and CSF collection. Blood samples were also collected for PCR analysis of JCV DNA as an exploratory adjunct. MRI scans were assessed by Central Reader Centers with expertise in neurological disorders, including the two Central Reader Centers for the original Phase 3 MS studies. A consensus guideline was developed prospectively to standardize criteria to help distinguish MS white matter abnormalities from those of PML.

Data set [10] is described as follows: Natalizumab in combination with glatiramer acetate over six months. Format: in vivo, human. To be noted: 20 mg daily glatiramer acetate. The protocol:
The safety of natalizumab in combination with glatiramer acetate was evaluated by administering natalizumab over six months to patients who continued to receive 20 mg of daily glatiramer acetate. […] However, this study was of insufficient size or duration to establish the long-term safety or efficacy in this population.

The test system of data set [11] is relapsing MS patients relapsing despite AVONEX. The data set is described as follows: Phase 3 add-on therapy study: natalizumab added to AVONEX versus AVONEX plus placebo for 120 weeks. Format: in vivo, human. The method, then: as §1, §2, §3, §4
The add-on therapy study was designed to evaluate the efficacy of natalizumab against active control for patients breaking through AVONEX® monotherapy. The choice of β-interferon was supported by available data on the proposed mechanisms of action of the available drugs. As discussed above, natalizumab has a well-defined mechanism of action, specifically targeting cellular adhesion and trans-endothelial migration via α4-integrins, as do the class of alpha-4 inhibitor compounds. Although the exact mechanism by which interferon-β exerts efficacy in MS is not known, interferon-β induces a large number of cellular processes involved in cytokine secretion and cellular phenotype changes. […]

A further data set concerns Crohn's Disease patients. Put plainly: Deaths in Crohn's Disease trials of natalizumab. Format: in vivo, human. To be noted: natalizumab-treated Crohn's Disease patients. An excerpt:
The exposure to natalizumab was approximately three-fold greater in these trials than exposure to placebo. The causes of death were acute myocardial infarction, acute renal failure, carbon dioxide asphyxiation, PML, pneumocystis carinii pneumonia, and bronchopulmonary aspergillosis.

Setting [12] is: mean post-hoc parameter estimates, population pharmacokinetic analysis.

Sequence of serotonin 5HT2(A) receptor (P28223 whole entry): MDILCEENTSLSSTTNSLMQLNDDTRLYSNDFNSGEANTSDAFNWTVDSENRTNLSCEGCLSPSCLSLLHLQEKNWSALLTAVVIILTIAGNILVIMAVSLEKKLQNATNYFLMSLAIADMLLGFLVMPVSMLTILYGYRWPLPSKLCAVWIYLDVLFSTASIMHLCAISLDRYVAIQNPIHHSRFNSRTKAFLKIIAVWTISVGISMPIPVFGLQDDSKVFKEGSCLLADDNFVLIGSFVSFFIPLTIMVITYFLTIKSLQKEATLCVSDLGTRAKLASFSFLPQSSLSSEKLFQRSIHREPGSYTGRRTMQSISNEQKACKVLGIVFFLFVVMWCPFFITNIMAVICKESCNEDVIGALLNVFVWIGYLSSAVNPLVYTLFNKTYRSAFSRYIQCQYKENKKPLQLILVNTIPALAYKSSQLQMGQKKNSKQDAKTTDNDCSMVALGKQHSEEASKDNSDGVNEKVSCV

On to `O=C1Cc2cc(CCN3CCN(c4nsc5ccccc45)CC3)c(Cl)cc2N1` [zisprasidone], for which the “Potency as 5HT2(A) receptor antagonist relative to chlorpromazine and clozapine” value in data set [1] was “significantly more potent”.
Take `Nc1ccn(C[C@@H](CO)OCP(=O)(O)O)c(=O)n1` [Cidofovir, cidofovir]: the “Clinical effect in PML” value in the data set on JCV [2] is recorded as “without clinical effect”.
For the compound `CN(C)CCCN1c2ccccc2Sc2ccc(Cl)cc21` [chlorpromazine], in the data set with JCV [3], the “Block of JCV cell entry” value is on record as “block”.
As to glatiramer acetate, the “Subjects who experienced at least one relapse despite treatment” value with MS patients [4] was 66%.
“natalizumab: humanized antibody against VLA-4; humanized IgG4κ monoclonal antibody directed against the α-4-subunit of alpha-4 integrins”: the Deaths entry in data set [5] is “two”. Also, the “Quality of life, physical and mental components of the SF-36” value in [6] (monotherapy versus placebo) is on record as “improved”. Further, the Annualized relapse rate in [6] (monotherapy, two years) is listed as 0.235. The “Hazard ratio (95% confidence interval) for sustained progression of disability” value in [6] (natalizumab versus placebo, two years) is reported as 0.58 (0.43, 0.77). For the same compound, the “Percentage of patients with sustained progression of disability” value in [6] (two years, measured by EDSS, monotherapy) is recorded as 17%. Further, the Patients remaining relapse-free in data set [6] (two years, monotherapy) is recorded as 67%. For the same compound, the “Risk reduction of disability progression” value in data set [6] (versus placebo, EDSS, two years) is recorded as 42%. Also, the “Relative reduction in annualized relapse rate” value in data set [6] (versus placebo, two years) came to 68%. Further, in data set [7] (setting [12]), the “Difference in half-life, concurrent AVONEX versus natalizumab monotherapy” value is listed as “approximately 5%” and the “Difference in steady-state clearance, concurrent AVONEX versus natalizumab monotherapy” value is recorded as “approximately 5%”. Besides, in [7] (small cohort with intensive pharmacokinetic sampling, placebo-controlled MS study), the “Serum concentrations of natalizumab on administration of AVONEX” value is reported as “increase”. For the same compound, the Tolerability result with MS patients [8] (3,919 subjects in MS, Crohn's Disease and rheumatoid arthritis trials) is reported as “generally well tolerated”. Further, the Occurrence of malignancy result with MS patients [8] (during natalizumab treatment, balanced with control groups) was “uncommon”. For the same compound, in the data set on MS patients [8] (human, in vivo), the “Incidence of hypersensitivity reactions” value is on record as “approximately 4%” and the “Incidence of serious systemic hypersensitivity reactions” value is given as “less than 1%”. In addition, the “Adverse events that led to discontinuation” value in the data set on MS patients [8] (natalizumab-treated MS patients) is on record as 5.8%. In addition, in the data set on MS patients [8] (natalizumab-treated patients, most common cause of discontinuation), the “Discontinuation due to urticaria” value came out at 1.2%. Moreover, the Deaths entry in the data set on MS patients [8] (open-label MS trials) is “Four”. In addition, in the data set with MS patients [8] (placebo-controlled MS trial), the “Serious adverse events: MS relapse” value worked out at 4.7%; the “Serious adverse events: appendicitis and urinary tract infection” value is listed as under 1%; the “Serious adverse events: infections and infestations” value came to 2.4%; the “Serious adverse events: nervous system disorders” value worked out at 5.9%. Further, in the data set on MS patients [8] (placebo-controlled MS trial, 251 of 1,617 patients), the “Patients with at least one serious adverse event” value is listed as 15.5%. The Deaths result in the data set with MS patients [8] (placebo-controlled MS trials, patients who had received natalizumab) is on record as “two”. Besides, in the data set on JCV [9] (human, in vivo), the “Incidence of PML” value is reported as “approximately 1 /1,000”; the “Incidence of PML, 95% confidence interval” value was 0.2-2.8 /1,000; the “JCV in CSF” value is listed as “not detected”. In addition, the “Confirmed cases of PML” value with JCV [9] (two MS patients, one Crohn's Disease patient, two fatal) was “Three”. For the same compound, in data set [10], the “Interaction between glatiramer acetate and natalizumab pharmacokinetics” value is listed as “no interactions”; the “Interaction between glatiramer acetate and natalizumab α4-integrin receptor saturation” value is listed as “no interactions”. In addition, the “Tolerability in combination with AVONEX” value in [11] (589 patients, up to 120 weeks) is “well tolerated”. Besides, the “Quality of life, physical components of the SF-36” value in data set [11] (compared to AVONEX therapy alone, trend on the mental component) is on record as “improved”. The Patients relapse-free in [11] (two years, add-on to AVONEX) is 54%. The “Risk reduction of disability progression” value in [11] (versus AVONEX alone, EDSS, two years) was found to be 24%. For the same compound, the “Relative reduction in annualized relapse rate” value in [11] (versus AVONEX, two years) is given as 55%. The Deaths entry in the data set on Crohn's Disease patients is “Six”.
